Usually stoichiometry N stands for the number of molecules, sites or subunits per partner or assembly.

These results are taken from paper doi:10.1101/559120.

The target of this experiment is branched-chain amino acid aminotransferase from Pseudomonas sp. (Pseudomonas sp.). The experiment can be described thus: crystal structure.

In the case of “branched-chain amino acid aminotransferase from Pseudomonas sp. (enzyme)”, the stoichiometry N was found to be 2.
